Reference: publication PMC10021056 (Nature Communications, 2023)

Tests used:
[1] = biological target: prefusion-stabilized Nipah virus fusion (F) glycoprotein, construct NiVF_prefusion (Nipah virus, Malaysian strain, stabilised)
[2] = biological target: postfusion Nipah virus fusion (F) glycoprotein, construct NiVF_postfusion (Nipah virus, Malaysian strain, stabilised)
[3] = biological target: prefusion-stabilized NiV F (NiVop08) (Nipah virus, Malaysian strain, stabilised)

| Binder | binding result [1] | binding result [2] | binding result [3] |
| --- | --- | --- | --- |
| 201805_NiV_P2_D4 (antibody, V domains shown) VH: EVQLQQSGAELVKPGASVKMSCKASGYTFTDYSIHWVKQKSGQGLEWIGWFYPGSGSIKNSDKVKDEAILTADKSSSTVYLELSSLTSEDSAVYFCARHGGGYDYGRAWFVYWGQGTLVTLEQ VL: FTQMTQSPKFLLVSAGDRVTITCKASQSVSNDVAWYQQKPGQSPKLLIYYASNRYTGVPDRFTGSGYGTDFTFTISTVQAEDLAVYFCQQDYGSPYTFGGGTKLKN | binds | – | – |
| 201805_NiV_PL4_D5 (antibody, V domains shown) VH: QIQLVQSGPELKKPGETVKISCKASGFTFTNYGINWVKQAPGKGLKWMGWTDTFTGEPTYADDFKGRFAFSLETSASTAYLQINNLKNEDMATYFCARQGWGEAMDYWGQGTSVTVSA VL: DVLDEQFHFLPVSLGDQASISCRSSQSIVHSNGNTYLEWYLQKPGQSPKLLIYKVSNRFSGVPDRFSGSGSGTDFTLKISRVEAEDLGVYYCFQGSHVPWTFGGGTKLEIK | binds | binds | – |
| 201805_NiV_PL4_E11 (antibody, V domains shown) VH: QVQLQQSGAELVKPGASVKLSCKASGYTFTNYDINWVRQRPEQGLEWIGWIFPGDGTTSYNEKFKDKATLTTDKSSSTAYMQLSRLTSEDSTVYFCARLGWGGAMDYWGQGTSVTVSA VL: YTLMTQSPLSLPVSLGDQASISCRSSQSIVHSNGNTYLQWYLQKPGQSPKLLIYKVSNRFSGVPDRFSGSGSGTDFTLKISRVEAEDLGVYYCFQGSHVPYTFGGGPSNKR | binds | binds | – |
| 201805_NiV_PL4_C5 (antibody, V domains shown) VH: EVQLQQSGPELVKPGASMKISCKASGYSFTGYTMNWVKQSHGKNLEWIGLINPYIGGTSYNQKFKGKATLTVDKSSSTAYMELLSLTSEDSAVYYCARLLGREGYYFDYWGQGTTLTSLS VL: DIQMTQTTSSLSASLGDRVTISCRASQDISNYLNWYQQKPDGTVKLLIYYTSRLHSGVPSRFSGSGSGTDYSLTISNLEQEDIATYFCQQGTTLPFTFGSGTKWKN | – | – | binds |
| 201805_NiV_PL3_H3 (antibody, V domains shown) V domain 1: EVQLEESGGGLVPGGSLKLSCAASGFTFISYAMSWIRQTPEKRLEWVATITSGGSYTYYPDSVMGRFTISRDNAKNTLHLQMSSLRSEDTAIYYCARGGYGSISPYYFDYWGQGTTLTSSA V domain 2: DIQMTQSSSSFSVSLGDRVTITCKAGEDIYNRLAWYQQKPGNAPRLLISGAISLETGVPSRFSGSGSGKDYTLSITSLQTEDVATYYCQQYWTNPWTFGGGTKLKSN | binds | binds | – |
| 201805_NiV_PL3_H11 (antibody, V domains shown) VH: EVQLQQSGPELVKPGTSVKISCKASDYSFTGYFMNWVKQSHGKSLEWIGRINPYNGDTFYNQKFKGKATLTVDKSSSTAHMELLSLTSEDSAVYYCAAFDVYYPAWFAYWGQGTTVTVSS VL: DIQMTQSSSSFSVSLGDRVTFTCKASEDIYNRLAWYQQKPGNAPRLLISGATSLETGVPSRFSGSGSGKDYTLTITSLQTEDVATYYCQQYWSIPWTFGGGTKLEIK | – | – | binds |
| 201805_NiV_PL3_A4 (antibody, V domains shown) VH: QVQLQQSGTELVKPGASVKLSCKASGYTFTSYWMHWVKQRPGQGLEWIGNINPSNGYTNNNEKFKSKATLTVDKSSSTAYMQLSSLTSEDSAVYYCARGGIYYYGSSLYYYTMDYWGQGTSVTVSS VL: DIQMTQSSSSFSVSLGDRVTITCKASEDIYNRLAWYQQKPGNAPRLLISDATSLETGVPSRFSGSGSGKDYTLSITSLQTEDVATYYCHQYWSTPWTFGGGTKLEIK | binds | – | – |
| 201805_NiV_P1_G1 (antibody, V domains shown) VH: QVQLQQSGAELAKPGASVKLSCKATGYTFTGSWIEWVKLRPGHGLEWFGEIFPGTGSVKHNEKFRGKAIITAETSSNTAYMKLSSLTTEDSAIYFCSRSNTNYEFFDVWGTGTTVTVSS VL: EILLTQSPAIISASPGERVTFTCSASSGVNYMNWYQQKPGSSPKIWIYGVSNLASGVPARFSGSGSGTSFSFTITNLEAEDVATYYCQQRSTFPLTFGAGTKLEIK | binds | binds | – |
| 201805_NiV_PL3_H6 (antibody, V domains shown) VH: EVQLEESGGGLVKPGGSLKLSCTASGFAFSTYDMSWVRQTPEKRLEWVAYISSGGGSTYYPDSVKGRFTISRDNARNTLYLQMSSLKSDDTAMYYCVRDDGYYGGAWFAYWGQGTLVTVSA VL: DIQMTQTTSSLSASLGDRVTISCRASQDIRNYLNWYQQKPDGTVKLLIYYTSRFHSGVPSRFSGSGSGTDYSLTINNLEQEDITTYFCQQGYILPWTFGGGTKLEIK | binds | binds | – |
| 201805_NiV_PL4_D8 (antibody, V domains shown) VH: EVQLQQSGPELVKPGASVKISCQASGYTFTDSNMNWVRQTHGKSLEWIGDVNPNNGGTSYNQRFKGKATLTVDKSSSTAYMEFRSLTSEDSAVYFCSRRALITTVVADYYGLDYWGQGTSVTVSA VL: SIVMTQSPKFLLVSAGDRVTMTCKASQSVNSDVVWFQQKPGQSPKLLIYYASIRYTGVPDRFTGSGYGTDFTFTISPVQAEDLAVYFCQQDYSSPYTFGGGTKLEIK | – | – | binds |
| 201805_NiV_PL3_G2 (antibody, V domains shown) VH: QIQLVQSGPELKKPGETVKISCTTSGFIFRNYGVNWVKRAPGKGLKWMGWIDAYTGEPAYADDFKGRFAFSLEMSANTAYLQITNLKNEDMATYFCARQGWGEAMDYWGQGTSVTVSS VL: DVLMTQSPLSLPVSSGDQASISCRSSQTFVHSNGNTYLEWYLQKPGQSPKLLIYKVSNRFSGVPDRFIGSGSGTDFTLKISRVEADDLGVYYCFQGSHVPWAFGGGTKLEIK | binds | binds | – |
| 201805_NiV_PL3_G11 (antibody, V domains shown) VH: QVQLQQSGAELVKPGASVKLSCKASGYIFTNYDINWVRQRPEQGLEWIGWIFPGDVSTNYNEKFKGKATLTTDKSSSTAYMQLSRLTSEDSAVYFCARRSFQAMDYWGQGTSVTVSA VL: DVLMTQTPLSLPVSLGDQASISCRSSQSIVHSNGNTYLEWYLQKPGQSPKLLIYKVSNRFSGVPDRFSGSGSGTDFTLKISRVEAEDLGVYYCFQGSHVPWTFGGGTKLEIK | binds | binds | – |
| 201805_NiV_PL3_E1 (antibody, V domains shown) VH: RFRLQQSGAELVKPGASVKLSCRASGYIFTSYWMHWVKQRPGQGLEWIGMIHPNSGSPNYNEKFKSKATLTVDNSSSTAYMQLSSLTSEDSAVYYCARTLLGQGAWFAYWGQGTLVTLAA VL: YIQMTLSPATLSVTPGDRVSLSCRASQSISDFLHWYQQKSHESPRLLIKYASQSISGIPSRFSGSGSGSDFTLSINSVEPEDVGVYYCQNGHSFPYTFGGGTKLKT | binds | binds | – |
| 201805_NiV_PL3_D4 (antibody, V domains shown) VH: EVQLQQSGPELVKPGASVKMSCKASGYTFTSNVMHWVKQKPGQGLEWIGYINPYNDGTRYNEKFKGKATLTSDKSSSTAYMELSSLTSEDSAVYYCARRFYRGAMDYWGQGTSVTVSA VL: NIVLHQSPASLAVSLGQRATISCRASESVDTYDNSFMHWYQQKPGQPPKLLIYLASKLESGVPARFSGSGSRTDFTLTIDPVEADDAATYYCQQNYEDPYTFGGGTKLEIK | – | – | binds |
| 201805_NiV_P2_F7 (antibody, V domains shown) VH: QVQLQQSGAELVKPGASVKMSCKASGYTFTNYWIHWVKQRPGQGLEWIGEIDPSNGNSDHNQDFKVKATLTVDTFSSTAYMQLNSLTSEDSAVYYCARSRYYFDYWGQGTTLTVSA VL: QIVLPQSPAIMSASPGEKVTLTCSARSSVSSGYLYWYQQKPGSSPKLWIYSTSNLASGVPTRFSGSGSGTSYSLTISSMEAEDAASYFCHQWSSYPPTFGGGTKLEIK | binds | binds | – |
| 201805_NiV_PL4_E1 (antibody, V domains shown) VH: EVQLEESGGGLVPGGSLKLSCAASGFTFSDYYMYWVRQTPEKRLEWVATISDGGSYTYYPDSVKGRFTISRDNAKNNLYLQMSSLKSEDTAMYYCAREKPDRGHYYAMDYWGQGTSVTVLQ VL: IQMTQSSSSFSVSLGDRVTITCKASEDIYNRLAWYQQKPGNAPRLLISGATSLETGVPSRFSGSGSGKDYTLSITSLQTEDVATYYCQQYWSTPYTFGGGTKLKN | binds | – | – |
| 201805_NiV_PL3_C3 (antibody, V domains shown) V domain 1: RFKLQQSGPELVKPGASMKISCKASGYSFTGYTMNWVKQSHGKNLEWIGLINPYIGGTSYNQKFKGKATLTVDKSSSTAYMELLSLTSEDSAVYYCARGGVYYGSNYDFDYWGQGTTLTSLS V domain 2: DIQMTQTTSSLSASLGDRVTISCSASQGISNYLNWYQQKPDGTVKLLIYYTSSLHSGVPSRFSGSGSGTDYSLTISNLEPEDIATYYCQQYSKLPRTFGGGTKLKSN | – | – | binds |
| 201805_NiV_PL4_C7 (antibody, V domains shown) VH: FEESGGLVQPGGSMKISCVASGFTFSNYWMNWVRQSPEKGLEWIAQIRLKSDNYATHYAESVKGRFTISRDDSKSSVYLQMNNLRAEDSGIYYCTGILDYWGQGTSVTVSQ VL: YIQMTQSPSSMSVSLGDTVSITCHASQGISSNIGWLQQKPGKSFKVLIYHGTNLEDGVPSRFSGSGSGADYSLTISSLESEDFADYYCVQYAQFPYTFGGGPNDKT | binds | – | – |
| 201805_NiV_P1_H5 (antibody, V domains shown) VH: EFQLQQSGPEVVKPGASVRISCKTSGYSFTDYNMNWVRQNNGRSLEWIGVINPNYGTFTYNQKFRGKATLTVDQSSSTAYMQLNSLTSADSAVYFCARAPDYYGINFYFDYWGQGTTLTVSA VL: DVVMTQTPLSLPVSLGDQASISCRSSQSLVHSNGDTYLHWYLQKPGQSPKLLIYKVSNRFSGVPDRFSGSGSGTDFTLKISRVEAEDLGVYFCSQSTHVPPWTFGGGTKLEIK | – | – | binds |
| 201805_NiV_PL4_F4 (antibody, V domains shown) VH: EFQLQQSGPEVVKPGASVKISCKTSGYSFTDYNMNWVKQSNGKSLEWIGVINPNYGTTTYNQKFRGKATLTVDQSSSTAYMQLNSLTSEDSAVYYCARAPDYYGINFYFDYWGQGTTLTVSA VL: DVVMTQSPLSLPVSLGDQASISCRSSQSLVHSNGDTYLHWYLQKPGQSPKLLIYKVSNRFSGVPDRFSGSGSGTDFTLKISRVEAEDLGVYFCSQSTHVPPWTFGGGTKLEIK | – | – | binds |
| 201805_NiV_P1_A6 (antibody, V domains shown) VH: LCLLTSSRSGLVRPGASVKLSCKASGYSFTSYWMNWVKQRPGHGLEWIGMIHPSDSETRLNQRFKDKATLTVDKSSSTAYMQLSSPTSEDSAVYYCAREDFYAMDYWGQGTSVTFSA VL: DIVMSQSPSSLAVSVGEKITMSCKSSQSLLYSSNKKKYLAWYQQKPGQSPKLLIYWASTRESGVPDRFTGSGSGTDFTLTISSVKAEDLAVYYCQQYYSYPYTFGGGPSNKR | binds | binds | – |
